The results in this text go back to US10005846 (LIFEARC, dated 2018).

In general, Kd refers to a measure of binding affinity in units of concentration. What is called koff is a measure of how fast the partners let go of each other. The kon is the rate constant with which the complex forms.

The labels stand for the following.
T1: cynomolgus monkey TG2 (cynomolgus monkey, UniProt A0A2K5VXI8 1-687)
T1 construct: Bought recombinant protein; also called cynomogulus monkey TG2; cyano TG2
T1 sequence: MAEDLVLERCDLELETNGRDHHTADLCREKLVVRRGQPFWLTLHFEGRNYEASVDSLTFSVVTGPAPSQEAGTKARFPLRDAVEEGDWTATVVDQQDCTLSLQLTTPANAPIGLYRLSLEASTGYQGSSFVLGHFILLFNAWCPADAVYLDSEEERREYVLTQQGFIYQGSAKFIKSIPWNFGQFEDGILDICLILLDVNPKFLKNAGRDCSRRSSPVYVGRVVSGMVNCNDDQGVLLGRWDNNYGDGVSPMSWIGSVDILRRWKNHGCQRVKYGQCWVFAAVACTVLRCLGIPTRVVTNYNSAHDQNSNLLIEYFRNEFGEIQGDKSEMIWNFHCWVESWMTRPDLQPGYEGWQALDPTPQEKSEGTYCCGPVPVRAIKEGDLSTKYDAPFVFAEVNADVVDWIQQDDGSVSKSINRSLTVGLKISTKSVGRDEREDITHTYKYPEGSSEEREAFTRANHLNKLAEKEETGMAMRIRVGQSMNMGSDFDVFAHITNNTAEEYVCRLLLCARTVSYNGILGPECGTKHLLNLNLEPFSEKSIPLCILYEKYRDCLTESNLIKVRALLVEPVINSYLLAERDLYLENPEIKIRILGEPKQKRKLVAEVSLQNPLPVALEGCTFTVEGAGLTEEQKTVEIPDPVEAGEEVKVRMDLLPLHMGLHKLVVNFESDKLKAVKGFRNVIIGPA

T2: human transglutaminase type 2 (TG2) (human, UniProt P21980 1-687)
T2 construct: Recombinant full-length human TG2 (Zedira; cat; T002 in the Biacore work); Also used here for the endogenous TG2 of HepG2 lysate and HK-2 cells; also called hTG2; rhTG2
T2 sequence: T1 sequence with D4E, R157Q, S177N, S413H, T421I, H528Y, I542V

B1: cBB001 chimeric antibody (murine BB7 variable regions) (antibody, human IgG1, V domains shown)
VH: AVQLVESGGGLVKPGGSLKLSCAASGIIFSSSAMSWVRQTPEKRLEWVATISSGGRSTYYPDSVKGRFTVSRDSAKNTLYLQMDSLRSEDTAIYYCAKLISPYWGQGTTLTVSS
VL: AIKMTQSPSSMYASLGERVIITCKASQDINSYLTWFQQKPGKSPKTLIYLTNRLMDGVPSRFSGSGSGQEFLLTISGLEHEDMGIYYCLQYVDFPYTFGGGTKLEIK
notes: also called chimeric BB7
B2: cDH001 chimeric antibody (murine DH2 variable regions) (antibody, human IgG1, V domains shown)
VH: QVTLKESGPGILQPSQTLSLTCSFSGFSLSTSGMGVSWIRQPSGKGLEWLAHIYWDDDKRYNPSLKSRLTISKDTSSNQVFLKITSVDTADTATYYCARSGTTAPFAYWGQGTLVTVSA
VL: QIVLTQSPAIMSASPGEKVTMTCSASSSVSYMYWYQQKPGSSPRLLIYDTSNLASGVPVRFSGSGSGTSYSLTISRMEAEDAATFYCQQWSSSPLTFGAGTKLELK
B3: cDD9001 chimeric antibody (murine DD9 variable regions) (antibody, human IgG1, V domains shown)
VH: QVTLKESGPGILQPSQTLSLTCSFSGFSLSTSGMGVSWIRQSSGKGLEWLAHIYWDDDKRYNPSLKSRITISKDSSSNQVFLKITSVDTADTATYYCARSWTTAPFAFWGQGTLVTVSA
VL: B2 VL with S30D, E78G, F85Y, S91N

Changes are numbered by the printed parent chain.

The first assay addresses T1, cynomolgus monkey TG2. Nature of the assay: SPR (Biacore T200), antibody captured on anti-human IgG1 Fc chip, TG2 injected; -Ca2+. The procedure:
(§1) Recombinant cynomolgus monkey TG2 was obtained from Trenzyme. Surface plasmon resonance (SPR) was measured on a Biacore T200 instrument (GE Healthcare). CM5 chips (GE Healthcare cat. no.: BR-1006-68) were coated with monoclonal mouse anti-human IgG1 (Fc) (MAH) antibody (GE Healthcare cat. no.: BR-1008-39) by amine-coupling as described in the manufacturers instructions. HBS-EP+ buffer (0.01 M HEPES, 0.15 M NaCl, 3 mM EDTA, 0.05% v/v Surfactant P20) and HBS-P+ buffer (0.01 M HEPES, 0.15 M NaCl, 0.05% Surfactant P20) were purchased from GE Healthcare as 10× stocks (cat. nos.: BR-1006-69 and BR-1006-71). Calcium Chloride solution was obtained from Sigma Aldrich (cat. no.:21115).
(§2) The method employed to determine the affinity of the anti-TG2 antibodies involved the capture of the chimeric or humanised antibodies on a MAH coated CM5 chip, followed by the injection of a series of TG2 samples in running buffer. The running buffer was 1×HBS-P+ containing 1 mM CaCl_2, or 1×HBS-EP+ for calcium-free experiments. Antibody capture was carried out for a contact time of 120 seconds at a flow rate of 10 μl/min resulting in the capture of approximately 40-80 RU. TG2 was injected over the immobilised antibody at concentrations ranging from 25 nM to 400 nM with a contact time up to 600 seconds at a flow rate of 30 μl/min. Dissociation of TG2 was typically measured for up to 5400 seconds (1.5 hours). Regeneration of the chip was then performed using 3 M MgCl_2, for a contact time of 60 seconds at a flow rate of […], followed by a 300 s stabilisation period before the next sample. For each of human and cynomolgus monkey TG2, at least 5 injections at a variety of concentrations were performed in at least two separate experiments.
(§3) Kinetic data were exported from the Biacore T200 Evaluation Software and analysed using GraphPad Prism, where the association phases and dissociation phases were analysed separately using a one phase association model and one-phase exponential decay model respectively. Association rates ($kon$) were calculated for each curve individually, and dissociation rates ($koff$) values from the long dissociation phase data collected. Where $koff$ values were calculated to be $<1\times10^-5$ s^-1, values were set at 1×10^-5 for analysis, as rates slower than this could not be estimated accurately.
A general note: SPR reads the build-up and loss of mass on a sensor chip optically.
With B1, the Kd was less than 0.05 nM, the koff was less than 1e-05 s⁻¹ and the kon amounted to 190000 M⁻¹ s⁻¹.

For B2, the Kd was determined as 2.4 nM, the koff turned out to be 6.3e-05 s⁻¹ and the kon was 26000 M⁻¹ s⁻¹.

For B3, binding was put at a Kd of 0.89 nM, the koff is 4.1e-05 s⁻¹ and the kon was 46000 M⁻¹ s⁻¹.

For another assay, the target named is T2, human transglutaminase type 2 (TG2). The description is as above. On the procedure: as §1, §2, §3
The molecule B1 returned a Kd of less than 0.07 nM, a koff of less than 1e-05 s⁻¹ and a kon of 150000 M⁻¹ s⁻¹.

In the case of B2, binding was characterised by a dissociation constant (Kd) of 23 nM, the koff stood at 0.00049 s⁻¹ and the kon is 21000 M⁻¹ s⁻¹.

Molecule B3 gave a Kd of 3.1 nM, a koff of 7.1e-05 s⁻¹ and a kon of 23000 M⁻¹ s⁻¹.
